Reference: patent publication US20120321591A1 (COVX TECHNOLOGIES IRELAND, published 2012)
Where two headings read alike, the source gives them in different places. Values belong to the binder of their own block, whether it stands above or below them. Bridges are numbered along the chain shown (N, C = ends). Where no end group is shown, it is not given here. [ ]: non-standard residue; d: D form. Phe(4-COOH) = N[C@@H](Cc1ccc(C(=O)O)cc1)C(=O)O

Legend:
[1] = target: T1, human angiopoietin-2 protein (human, UniProt O15123 19-496); assay: competitive ELISA: Tie-2-Fc binding to coated Ang-2; peptide alone
T1 construct: also called Ang-2; Ang2
T1 sequence (looked up): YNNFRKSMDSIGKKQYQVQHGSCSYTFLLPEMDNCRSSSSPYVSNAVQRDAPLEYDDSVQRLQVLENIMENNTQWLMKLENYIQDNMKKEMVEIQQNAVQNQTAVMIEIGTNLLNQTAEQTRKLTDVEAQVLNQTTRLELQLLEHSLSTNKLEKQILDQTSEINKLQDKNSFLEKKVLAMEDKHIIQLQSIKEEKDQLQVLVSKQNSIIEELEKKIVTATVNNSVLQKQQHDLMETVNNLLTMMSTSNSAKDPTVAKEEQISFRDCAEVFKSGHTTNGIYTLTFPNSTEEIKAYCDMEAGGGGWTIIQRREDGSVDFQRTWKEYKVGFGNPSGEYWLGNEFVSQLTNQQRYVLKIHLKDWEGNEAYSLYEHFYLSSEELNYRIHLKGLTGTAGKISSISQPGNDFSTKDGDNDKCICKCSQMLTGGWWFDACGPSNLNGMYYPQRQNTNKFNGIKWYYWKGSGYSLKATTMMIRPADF
Protocol: (§1) Plates were washed three times with washing buffer (0.1% Tween 20, PBS, pH 7.4) and blocked with Superblock (Scytek), […] at room temperature (“RT”) for 1 hour. […] Plates were washed 3 times with washing buffer. […] Following incubation, 50 ul of 1:5,000 dilution of goat anti-mouse IgG-HRP in Superblock was then added and incubated at RT for one hour. After washing 3 times, […] was added, and incubated for 3-5 minutes. Color development was monitored and stopped with 25 μl of 2 M H₂SO₄. OD450 nm with a correction wavelength of 540 nm was measured.

[2] = target: T1, human angiopoietin-2 protein; assay: reverse competition ELISA presumed: Ang-2 binding to coated Tie-2-Fc; peptide alone
Protocol: Plates were washed three times with washing buffer (0.1% Tween 20, PBS, pH 7.4) and blocked with Superblock, 150 μl/well at RT for 1 hour. Plates were washed three times. […] Plates were washed 3 times, and 50 W of streptavidin HRP (1:200 dilution in Superblock) was added at RT for 20 minutes. Plates were washed 3 times, and […] (25 μl TMB+25 μl H₂O₂) substrate solution was added and incubated for 20-30 minutes. Color development was stopped with 25 μl of 2 M H₂SO₄. OD450 nm with a correction wavelength of 540 nm was measured.

[3] = target: T1, human angiopoietin-2 protein; assay: competitive ELISA: Tie-2-Fc binding to coated Ang-2; T
Protocol: as §1

[4] = target: T2, recombinant human VEGF165 (human, UniProt P15692-4 27-191); assay: competition ELISA: VEGF165 binding to coated VEGFR2/Fc; normalized value
T2 construct: also called rhVEGF165
T2 sequence (P15692 other isoform, or with tags, fused parts or gaps limits assumed): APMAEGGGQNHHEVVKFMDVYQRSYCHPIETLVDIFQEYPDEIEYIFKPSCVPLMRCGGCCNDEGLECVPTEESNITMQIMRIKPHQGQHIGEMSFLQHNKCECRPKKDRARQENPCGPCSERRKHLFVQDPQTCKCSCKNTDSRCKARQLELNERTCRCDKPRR

[5] = target: T2, recombinant human VEGF165; assay: as above; remark: listed apart in the source

Binder: QXYQPLDELDKTLYDQFMLQQG (N-terminal acyl cap; C-terminal amino cap; Kac 2) [Compound 4022]
- IC50 [1]: 41.9 nM
- IC50 [2]: 14.4 nM

B1: Compound 4061, peptide plus linker (T) (peptide)
peptide: QXYQPLDELDKTLYDQFMLQQG
modifications: not fully specified; N-terminal acyl cap; C-terminal amino cap; Nick 2; 0P linker on K11
notes: also called 4061 T
- IC50 [3]: 83.9 nM

Binder: QNYQPLDELDKTLYDQFMLQQG-NH2 (also: N-terminal acyl cap) [Compound 4023]
- IC50 [1]: 27.8 nM

Binder: QKYQPLDELDKTLYDQFMLQQG-NH2 (also: N-terminal acyl cap) [Compound 4021]
- IC50 [1]: 25.8 nM
- IC50 [2]: 36.4 nM

B2: Compound 4057, peptide plus linker (T) (peptide)
peptide: QNYQPLDELDKTL[Phe(4-COOH)]DQFMLQQG-NH2
modifications: not fully specified (residue 11, N-terminus); also: N-terminal acyl cap, acyl not given here
notes: also called 4057 T
- IC50 [3]: 110 nM

Binder: QK(Ac)YQPLDEK(Ac)DKTL[Phe(4-COOH)]DQFMLQQG-NH2 (not fully specified (residue 11, N-terminus), also called 4062 T) [Compound 4062, peptide plus linker (T)]
- IC50 [3]: 499 nM

Now from value to binder:

- IC50 [4]: 325 nM
Binder: Ac-VEPNCDIHVMWVWECFERLYGGW-NH2 (disulfide 5-15 (inferred)) [[VEGF-Peptide] SEQ ID NO:35]

- IC50 [4]: 172 nM
Binder: Ac-VEPNCDIHVMWVWVCFERLFREA-NH2 (disulfide 5-15 (inferred)) [[VEGF-Peptide] SEQ ID NO:36]

- IC50 [4]: 70 nM
Binder: Ac-VEPNCDIHVMWVWECFERLYREL-NH2 (disulfide 5-15 (inferred)) [[VEGF-Peptide] SEQ ID NO:39]

- IC50 [4]: 59 nM
Binder: Ac-VEPNCDIHVMWVWVCFERLFKEA-NH2 (disulfide 5-15 (inferred)) [[VEGF-Peptide] SEQ ID NO:37]

- IC50 [4]: 188 nM
- IC50 [5]: 188 nM
Binder: Ac-VEPNCDIHVMWEWECFERL-NH2 (disulfide 5-15 (inferred)) [[VEGF-Peptide] SEQ ID NO:34]
